Data on one molecule can be found in US20090191187A1 (published 2009).

Assay [1] deals with T1, recombinant soluble human type 1 IL-1 receptor (extracellular domain, glycosylated) (human, UniProt P14778 21-333, N-glycosylated (from SF9 insect cells); biotinylated in the ELISA of Examples 2 and 4c).
T1 construct: also called hIL-1R; rshIL-1R
T1 sequence: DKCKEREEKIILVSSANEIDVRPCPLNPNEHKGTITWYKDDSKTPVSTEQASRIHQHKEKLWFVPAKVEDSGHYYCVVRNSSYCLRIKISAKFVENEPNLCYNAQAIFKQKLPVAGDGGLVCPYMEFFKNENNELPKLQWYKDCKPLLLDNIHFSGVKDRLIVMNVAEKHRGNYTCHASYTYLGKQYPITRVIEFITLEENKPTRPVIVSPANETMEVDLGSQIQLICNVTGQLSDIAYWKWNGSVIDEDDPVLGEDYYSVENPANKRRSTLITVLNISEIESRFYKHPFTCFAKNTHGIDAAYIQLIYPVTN
The experiment in a line: SPR competition: IL-1R (10 nM) preincubated with DEI5/8, injected over immobilized 2D8 (competitor); first assay: immobilized 2D8. Here is the method: The protein-protein interaction of anti-IL-1R antibodies with IL-1R is analyzed by surface plasmon resonance using a Biacore 3000 System. Association rates are determined by an injection of two minutes duration; dissociation rates are measured by a washing step of three minutes duration. Negative control data are subtracted from original curves for correction of system intrinsic baseline drift and for noise signal reduction. Two assay formats with the antibody and IL-1R immobilized to the chip surface are used for this study.
a) Anti-IL-1R antibody 2D8 is covalently immobilized on the chip surface (CM5) by amine coupling. IL-1R is injected in a concentration of 10 nM under mass transfer conditions in order to determine the maximum signal which serves as a reference in the inhibition studies. Inhibition of IL-1R (10 nM) binding is measured by preincubation (in HBS—P buffer for at least 20 min at room temperature) of IL-1R with increasing concentrations (0.78-100 nM) of IL-1R antagonist, IL-1beta or DEI5/8. Subsequently, the samples are injected into the flow cells and interaction with immobilized 2D8 antibody is determined.

The target of assay [2] is T2, human interleukin-1 receptor on cells (MRC-5 human embryonic lung fibroblasts; human blood cells) (human, UniProt P14778 18-569).
T2 sequence (looked up): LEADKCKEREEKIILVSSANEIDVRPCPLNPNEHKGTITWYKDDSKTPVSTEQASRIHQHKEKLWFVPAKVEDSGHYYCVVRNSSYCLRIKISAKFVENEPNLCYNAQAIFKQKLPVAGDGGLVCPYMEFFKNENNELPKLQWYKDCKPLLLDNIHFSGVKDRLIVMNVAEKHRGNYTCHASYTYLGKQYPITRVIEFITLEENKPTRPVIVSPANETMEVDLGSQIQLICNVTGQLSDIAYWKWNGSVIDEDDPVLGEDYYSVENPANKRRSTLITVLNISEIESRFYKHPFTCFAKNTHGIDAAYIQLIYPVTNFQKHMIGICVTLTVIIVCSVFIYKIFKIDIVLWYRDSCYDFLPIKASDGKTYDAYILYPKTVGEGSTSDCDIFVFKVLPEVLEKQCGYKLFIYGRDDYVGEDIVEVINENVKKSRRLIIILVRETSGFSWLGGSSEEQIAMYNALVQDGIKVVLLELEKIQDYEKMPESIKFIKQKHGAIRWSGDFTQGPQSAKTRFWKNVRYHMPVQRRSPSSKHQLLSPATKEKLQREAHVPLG
Description: cell-based or functional assay.

Assay [3] has as its target T1, recombinant soluble human type 1 IL-1 …. Description: ELISA on biotinylated human IL-1R on streptavidin plates. Here is the method: The relative immunactivity of the antibodies as compared to 2D8 antibody was determined by ELISA. A soluble biotinylated human IL-1R was coated at room temperature for one hour to 96-well-plates (precoated with streptavidin). After blocking with BSA the antibody was diluted and added to the wells and incubated at room temperature for two hours. The plates were washed three times and incubated with horse-radish-peroxidase (POD)-conjugated rabbit-anti-rat-IgG at room temperature for one hour. After further washing the amount of bound antibody was determined by addition of TM-Blue® ([…]) and measurement of the absorbance at 370 nm.
In general terms: In an ELISA, binding on a coated surface is turned into a signal by an enzyme label.

B1: DEI5/8 (antibody, human IgG4, kappa, V domains shown)
VH: QLQLQESGPGLVKPSQTLSLTCTVSGLSLTSNSITWIRQPPGKGPEWMGMIWSNGDTDYSTSLKSRLTISKDTSKSQVVLTMTNMDPVDTATYYCARYNYYFDYWGQGTLVTVSS
VL: DIVLTQSPATLSLSPGERATLSCKASQNVDNRGVSYVHWYQQKPGQAPKLLIYKGSNLAFGVPSRFSGSGSGTDFTLTISSLQPEDFATYFCQQSKGHPDTFGAGTKLELKR
notes: also called combination of HURDIVHv5 and HURDIVKv8
On to B1, for which the IC50 in assay [1] was 2 nM. In assay [2], the “Bioassay (IC50 in relation to 2D8), 1st experiment” value was 1.7 relative to 2D8; the “Bioassay (IC50 in relation to 2D8), 2nd experiment” value is 2.2 relative to 2D8; the “Bioassay (IC50 in relation to 2D8), Mean” value was 2 relative to 2D8. Besides, in assay [3], the “ELISA (absorbance at 370 nm in relation to 2D8), 1st experiment” value is 1.4 relative to 2D8; the “ELISA (absorbance at 370 nm in relation to 2D8), 2nd experiment” value was 1.9 relative to 2D8; the “ELISA (absorbance at 370 nm in relation to 2D8), mean” value is 1.7 relative to 2D8.

A word on the IC50: it is the concentration needed to halve the response being measured.
